Assay results taken from patent publication US20240287172A1 (SCIRHOM, published 2024).

Target: T1, hiR2-FL-S607R-T7 (human, UniProt Q6PJF5 1-856)
T1 sequence: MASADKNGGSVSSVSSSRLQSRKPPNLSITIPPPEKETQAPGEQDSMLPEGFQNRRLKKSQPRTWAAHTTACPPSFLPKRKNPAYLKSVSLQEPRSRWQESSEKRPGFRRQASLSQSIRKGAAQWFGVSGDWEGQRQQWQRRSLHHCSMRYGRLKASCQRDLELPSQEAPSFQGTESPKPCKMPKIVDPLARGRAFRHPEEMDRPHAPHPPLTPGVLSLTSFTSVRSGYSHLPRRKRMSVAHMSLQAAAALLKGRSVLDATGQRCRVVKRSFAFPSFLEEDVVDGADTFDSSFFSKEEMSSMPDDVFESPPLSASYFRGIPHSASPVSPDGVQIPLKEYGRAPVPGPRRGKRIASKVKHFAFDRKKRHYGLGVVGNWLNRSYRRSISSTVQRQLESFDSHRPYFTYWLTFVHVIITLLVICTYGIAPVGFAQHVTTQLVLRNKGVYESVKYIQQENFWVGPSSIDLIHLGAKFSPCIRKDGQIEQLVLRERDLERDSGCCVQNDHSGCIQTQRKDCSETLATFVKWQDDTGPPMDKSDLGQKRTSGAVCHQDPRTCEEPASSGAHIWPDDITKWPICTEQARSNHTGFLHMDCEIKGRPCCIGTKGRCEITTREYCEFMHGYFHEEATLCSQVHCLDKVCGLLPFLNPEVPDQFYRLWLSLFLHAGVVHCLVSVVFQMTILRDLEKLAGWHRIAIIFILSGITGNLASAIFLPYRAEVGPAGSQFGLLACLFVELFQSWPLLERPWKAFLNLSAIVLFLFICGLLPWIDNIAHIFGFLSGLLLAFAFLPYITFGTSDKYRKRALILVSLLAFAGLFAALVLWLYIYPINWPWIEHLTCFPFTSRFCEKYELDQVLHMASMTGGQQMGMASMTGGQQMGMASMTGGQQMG
Experiment: FACS, MEF-DKO cells, 3 µg/ml
How it was run: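 MEF-DKO cells expressing T7-tagged full-length hiR2 point mutants were stained on ice for 1 h with purified antibodies at 3 μg/ml in FACS buffer. Detection used PE-conjugated goat anti-mouse IgG F(ab′)2 (1:100, 1 h on ice), read by flow cytometry; buffer-only wells served as controls.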

B1: antibody 48 (antibody, V domains shown)
VH: QVQLQQSGTELVRPGTSVKVSCKASGYAFTNYLIEWVKQRPGQGLEWIGVINPGSGFTKYNEKFKGKATLTADKSSSTVYMHLSSLTSEDSAVYFCARGLYRAMDYWGQGTSVTVSS
VL: DIQMTQSPASQSASLGESVTITCLASQTIATWLAWYQQKPGKSPQLLIYGATTLADGVPSRFSGGGSGTKFSFKISSLQAEDFVSYYCQQLYSTPYTFGGGTKLEIK
notes: mouse IgG, kappa light chain; also called clone #48; purified antibody 48
loss of binding vs wild type: ≥ 30%

B2: antibody 50 (antibody, V domains shown)
VH: QVQLQQSGAELVRPGASVKVSCKASGYAFSNYLIEWVKQRPGQGLEWIGVINPGSGFTKYNEKFKGKATLTADKSSSTAYMQLSSLTSEDSAVYFCARGLYRAMDYWGQGTSVTVSS
VL: DIQMTQSPASQSASLGESVTITCLASQTIGTWLAWYQQKPGKSPQLLIYAAASLADGVPSRFSGGGSGTKFSFKISSLQAEDFVNYYCQQIYSTPYTFGGGTKLEIK
notes: mouse IgG, kappa light chain; also called clone #50; purified antibody 50
loss of binding vs wild type: ≥ 30%
